We go through one molecule from US20060233808A1 (published 2006).

This test deals with T1, EGF receptor on human A431 cancer cells (human, UniProt P00533 25-1210).
T1 construct: whole, on cells; also called epidermal growth factor receptor; ErbB1
Put plainly: competition assay on A431 cells, Mab425 fixed at 6.67 nM as competitor, Peptabody EGF 0.1 to 200 nM.

B1: Peptabody EGF (designed binder)
chain: MYSFEDLASHHHHHHGDLGPQMLRELQETNAALQDVRDYLRQLVREITFLKNTVMECDACGMQQTSPPTPPTPSPSTPPTPSPRSNSDSECPLSHDGYCLHDGVCMYIEALDKYACNCVVGYIGERCQYRDLKWWELR
notes: also called p-EGF; P-EGF
Turning to B1, the binding result is “binds”.
